Results from doi:10.1101/444570 (bioRxiv, 2018).

How the values were obtained:
[1] = target: COMA complex (Ame1/Okp1/Ctf19/Mcm21) (S. cerevisiae (budding yeast), UniProt P38313;P53298;Q02732;Q06675); test: cross-linking
[2] = target: Ctf19/Mcm21 heterodimer (wild type) (S. cerevisiae (budding yeast), UniProt Q02732;Q06675); test: pull-down
Ctf19/Mcm21 heterodimer (wild type), sequence (Q02732 whole entry, chain 1 of 2): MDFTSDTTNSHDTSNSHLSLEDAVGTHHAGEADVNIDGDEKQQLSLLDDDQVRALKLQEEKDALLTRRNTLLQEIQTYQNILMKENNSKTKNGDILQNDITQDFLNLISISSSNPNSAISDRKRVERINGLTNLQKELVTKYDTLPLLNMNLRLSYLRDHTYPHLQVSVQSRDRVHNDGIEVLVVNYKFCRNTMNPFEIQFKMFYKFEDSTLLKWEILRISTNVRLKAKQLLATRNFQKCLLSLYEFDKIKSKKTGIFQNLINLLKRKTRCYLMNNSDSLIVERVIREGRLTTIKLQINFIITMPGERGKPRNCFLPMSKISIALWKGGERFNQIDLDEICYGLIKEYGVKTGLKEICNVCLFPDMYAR
Ctf19/Mcm21 heterodimer (wild type), sequence (Q06675 whole entry, chain 2 of 2): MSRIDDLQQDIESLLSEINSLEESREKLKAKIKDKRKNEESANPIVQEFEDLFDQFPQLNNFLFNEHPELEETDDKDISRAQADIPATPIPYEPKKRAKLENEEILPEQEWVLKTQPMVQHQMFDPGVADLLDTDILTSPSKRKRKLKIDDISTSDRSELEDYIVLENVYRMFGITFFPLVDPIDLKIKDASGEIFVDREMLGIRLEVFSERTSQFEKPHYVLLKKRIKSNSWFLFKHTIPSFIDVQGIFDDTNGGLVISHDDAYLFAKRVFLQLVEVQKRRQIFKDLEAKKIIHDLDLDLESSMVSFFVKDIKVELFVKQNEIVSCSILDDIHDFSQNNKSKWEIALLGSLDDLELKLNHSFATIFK

COMA complex (Ame1/Okp1/Ctf19/Mcm21), sequence (P38313 whole entry, chain 1 of 4): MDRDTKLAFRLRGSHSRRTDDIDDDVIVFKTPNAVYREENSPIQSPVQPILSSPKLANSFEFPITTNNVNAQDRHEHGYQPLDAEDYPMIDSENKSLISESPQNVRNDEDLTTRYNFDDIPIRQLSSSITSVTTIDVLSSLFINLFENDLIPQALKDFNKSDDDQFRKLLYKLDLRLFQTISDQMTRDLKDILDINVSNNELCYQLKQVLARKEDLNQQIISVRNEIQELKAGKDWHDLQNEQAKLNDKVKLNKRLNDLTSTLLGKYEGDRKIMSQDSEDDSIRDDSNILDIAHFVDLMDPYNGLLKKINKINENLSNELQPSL
COMA complex (Ame1/Okp1/Ctf19/Mcm21), sequence (P53298 whole entry, chain 2 of 4): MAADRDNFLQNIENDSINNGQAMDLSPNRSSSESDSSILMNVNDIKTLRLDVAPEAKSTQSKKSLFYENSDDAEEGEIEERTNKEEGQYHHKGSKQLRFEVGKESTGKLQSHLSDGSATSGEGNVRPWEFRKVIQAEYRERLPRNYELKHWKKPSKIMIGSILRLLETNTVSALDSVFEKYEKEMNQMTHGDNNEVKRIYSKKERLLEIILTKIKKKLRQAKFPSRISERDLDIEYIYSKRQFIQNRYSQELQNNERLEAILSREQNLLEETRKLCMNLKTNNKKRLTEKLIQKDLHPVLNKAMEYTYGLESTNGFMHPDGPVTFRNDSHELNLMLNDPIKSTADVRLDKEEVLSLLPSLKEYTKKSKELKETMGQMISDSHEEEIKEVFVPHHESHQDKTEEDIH
COMA complex (Ame1/Okp1/Ctf19/Mcm21), sequence (Q02732 whole entry, chain 3 of 4): as the sequence (Q02732 whole entry, chain 1 of 2) above
COMA complex (Ame1/Okp1/Ctf19/Mcm21), sequence (Q06675 whole entry, chain 4 of 4): as the sequence (Q06675 whole entry, chain 2 of 2) above

binding result [1] | binding result [2] | Binder
binds | – | Sli15-2xStrep/Ipl1 (wild type, not phosphorylated) (complex) chain 1: MDWAIKAARKKTQRKPGSTRSIIETLDDLNNLTTDAHSEINQRLYESSEWLRNNVYMNTLKYEDKKMEESLISPENTHNKMDVEFPKMKGEYELSNSQNDAAKDVTKTPRNGLHNDKSITPKSLRRKEVTEGMNRFSIHDTNKSPVEPLNSVKVDANESEKSSPWSPYKVEKVLRESSKTSESPINTKRFDNQTWAAKEEMENEPILQALKKAESVKVKPPPNSGIARSQRRSNMFVPLPNKDPLIIQHIPPTKSSGSIPKVRTVKESPIAFKKKSTINSPAIRAVENSDTAGSTKASSVFDRLSSIPTKSFENKISRGNVGHKYSSSSIDLTGSPMKKVSQKFKSINSTDTDMQEALRDIFSVKNKITKNNSPKGKNSRKSSIPRFDKTSLKLTTHKKLAIIAEQKKKSKHSSDVHKTGSRPHSISPTKISVDSSSPSKEVKNYYQSPVRGYLRPTKASISPNKNKNLTTSQTPHRLKIKEKTLRKLSPNIADISKPESRKSKNYRLTNLQLLPPAEAERDDLKKKFDKRLSGIMRSQQEHHRRKQEKQKRMSHLEQDLKKQTSFSNDYKDIRLKESLAPFDNHVRDTINKNTAFSTDNILATINTVDHREIIGNVTPKIASVNDSLPEINTDSEDEASVTLAAWAKSPYLQEQLIRQQDINPQTIFGPIPPLHTDEIFPNPRLNRLKPRQIVPKRS chain 2: MQRNSLVNIKLNANSPSKKTTTRPNTSRINKPWRISHSPQQRNPNSKIPSPVREKLNRLPVNNKKFLDMESSKIPSPIRKATSSKMIHENKKLPKFKSLSLDDFELGKKLGKGKFGKVYCVRHRSTGYICALKVMEKEEIIKYNLQKQFRREVEIQTSLNHPNLTKSYGYFHDEKRVYLLMEYLVNGEMYKLLRLHGPFNDILASDYIYQIANALDYMHKKNIIHRDIKPENILIGFNNVIKLTDFGWSIINPPENRRKTVCGTIDYLSPEMVESREYDHTIDAWALGVLAFELLTGAPPFEEEMKDTTYKRIAALDIKMPSNISQDAQDLILKLLKYDPKDRMRLGDVKMHPWILRNKPFWENKRL
– | binds | Sli15∆N2-370-2xStrep/Ipl1 (complex) chain 1: MNNSPKGKNSRKSSIPRFDKTSLKLTTHKKLAIIAEQKKKSKHSSDVHKTGSRPHSISPTKISVDSSSPSKEVKNYYQSPVRGYLRPTKASISPNKNKNLTTSQTPHRLKIKEKTLRKLSPNIADISKPESRKSKNYRLTNLQLLPPAEAERDDLKKKFDKRLSGIMRSQQEHHRRKQEKQKRMSHLEQDLKKQTSFSNDYKDIRLKESLAPFDNHVRDTINKNTAFSTDNILATINTVDHREIIGNVTPKIASVNDSLPEINTDSEDEASVTLAAWAKSPYLQEQLIRQQDINPQTIFGPIPPLHTDEIFPNPRLNRLKPRQIVPKRS chain 2: MQRNSLVNIKLNANSPSKKTTTRPNTSRINKPWRISHSPQQRNPNSKIPSPVREKLNRLPVNNKKFLDMESSKIPSPIRKATSSKMIHENKKLPKFKSLSLDDFELGKKLGKGKFGKVYCVRHRSTGYICALKVMEKEEIIKYNLQKQFRREVEIQTSLNHPNLTKSYGYFHDEKRVYLLMEYLVNGEMYKLLRLHGPFNDILASDYIYQIANALDYMHKKNIIHRDIKPENILIGFNNVIKLTDFGWSIINPPENRRKTVCGTIDYLSPEMVESREYDHTIDAWALGVLAFELLTGAPPFEEEMKDTTYKRIAALDIKMPSNISQDAQDLILKLLKYDPKDRMRLGDVKMHPWILRNKPFWENKRL
